In patent US20160185837A1 (Medimmune Limited, priority 2013, published 2016):

Legend:
[1] = biological target: T1, human GLP-1 receptor (hGLP-1r) (Homo sapiens, UniProt P43220); test: BSA-cAMP assay, cells expressing human GLP-1 receptor; assay type: cell-based; conditions: Batch 1; BSA-cAMP assay; read-out: hGLP1r cAMP activity EC50
T1 construct: expressed in transfected cells
Protocol: (§1) One basic cAMP assays was performed, differing in the medium used for the assay, the “BSA-cAMP assay”:
(§2) BSA-based assay medium: 0.1% bovine serum albumin (BSA) in
(§3) In certain aspects, the assay can also be carried out in medium supplemented with serum albumin that corresponds to the receptor being tested, e.g., human serum albumin for testing cAMP activity at hGIPr or hGLP-1r, rat serum albumin for testing cAMP activity at rGIPr or rGLP-1r, and so on. […] All sample dilutions were made in duplicate.
(§4) A frozen cryo-vial of cells expressing the receptor of interest was thawed rapidly in a water-bath, transferred to pre-warmed assay media and spun at 240×g for 5 minutes. Cells were re-suspended in assay buffer at an optimized concentration (e.g., hGLP-1r and hGIPr cells at 0.5×10^5 cells/ml).
(§5) To this, 5 μL cell suspension was added and the plates incubated at room temperature for 30 minutes.
(§6) cAMP levels were measured using a commercially available cAMP dynamic 2 HTRF kit (Cisbio, Cat #62AM4PEJ), following the two step protocol as per manufacturer's recommendations. In brief; anti-cAMP cryptate (donor fluorophore) and cAMP-d2 (acceptor fluorophore) were made up separately by diluting each 1/20 in conjugate & lysis buffer provided in the kit. 5 μL anti-cAMP cryptate was added to all wells of the assay plate, and 5 μL cAMP-d2 added to all wells except non-specific binding (NSB) wells, to which conjugate and lysis buffer was added. […] Data was transformed to % Delta F as described in manufacturer's guidelines and then transformed to percent activation of maximal native agonist response and analysed by 4-parameter logistic fit to determine EC50 values.
(§7) We used unconstrained 4 parameter logistic fit of data, curve mid-point to determine EC50. This was tested on two occasions, not two batches.

[2] = biological target: T2, human GIP receptor (hGIPr) (Homo sapiens, UniProt P48546); test: BSA-cAMP assay, cells expressing human GIP receptor; assay type: cell-based; conditions: Batch 1; BSA-cAMP assay; read-out: hGIPr cAMP activity EC50
T2 construct: expressed in transfected cells
T2 sequence (P48546 22-466): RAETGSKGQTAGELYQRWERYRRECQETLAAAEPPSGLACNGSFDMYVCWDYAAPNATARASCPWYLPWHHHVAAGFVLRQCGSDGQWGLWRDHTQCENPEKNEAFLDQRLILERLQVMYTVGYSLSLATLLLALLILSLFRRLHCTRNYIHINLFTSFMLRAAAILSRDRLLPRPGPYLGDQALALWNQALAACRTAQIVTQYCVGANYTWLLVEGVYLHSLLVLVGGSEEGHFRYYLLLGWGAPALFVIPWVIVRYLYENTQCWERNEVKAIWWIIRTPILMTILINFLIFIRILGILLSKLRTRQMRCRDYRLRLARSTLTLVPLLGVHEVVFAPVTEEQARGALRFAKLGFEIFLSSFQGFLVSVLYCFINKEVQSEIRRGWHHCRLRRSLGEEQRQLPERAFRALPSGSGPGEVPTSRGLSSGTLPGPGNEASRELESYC
Protocol: For human GIPr, two different lines were used, shown as “hGIPr” and “hGIPr (C3)” in Table 11.
as §1, §2, §3, §4, §5, §6, §7

[3] = biological target: T3, human glucagon receptor (GCGr) (Homo sapiens, UniProt P47871); test: BSA-cAMP assay, cells expressing human glucagon receptor; assay type: cell-based; conditions: Batch 1, read-out: hGCGr cAMP activity EC50
T3 construct: expressed in transfected cells; host or cells: HEK293s or CHO cells
Protocol: as §1, §2, §3, §4, §5, §6, §7

[4] = biological target: T4, mouse GLP-1 receptor (mGLP-1r) (Mus musculus, UniProt O35659); test: BSA-cAMP assay, cells expressing mouse GLP-1 receptor; assay type: cell-based; conditions: Batch 1; BSA-cAMP assay; read-out: mGLP1r cAMP activity EC50
T4 construct: expressed in transfected cells; host or cells: HEK293s or CHO cells
T4 sequence (O35659 22-463): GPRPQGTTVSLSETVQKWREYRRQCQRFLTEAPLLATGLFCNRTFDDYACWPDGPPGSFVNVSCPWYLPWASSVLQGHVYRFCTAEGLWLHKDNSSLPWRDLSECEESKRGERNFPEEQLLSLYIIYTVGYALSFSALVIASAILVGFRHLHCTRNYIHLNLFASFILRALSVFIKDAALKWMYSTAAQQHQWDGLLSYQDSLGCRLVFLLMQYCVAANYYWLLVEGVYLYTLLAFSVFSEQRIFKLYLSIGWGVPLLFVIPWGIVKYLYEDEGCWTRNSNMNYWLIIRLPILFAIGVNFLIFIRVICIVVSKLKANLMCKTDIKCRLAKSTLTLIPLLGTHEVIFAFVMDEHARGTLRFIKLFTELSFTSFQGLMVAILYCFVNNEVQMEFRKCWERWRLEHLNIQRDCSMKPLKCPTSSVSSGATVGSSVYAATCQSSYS
Protocol: as §1, §2, §3, §4, §5, §6, §7
(§8) In order to be able to carry out in vivo studies in rodents, IP088 was tested for potency against the mouse receptors mGIPr and mGLP-1r as well as the rat receptors rGIPr and rGLP-1r, using cells expressing the respective receptors in the cAMP assay described above.

[5] = biological target: T5, mouse GIP receptor (mGIPr) (Mus musculus, UniProt Q0P543); test: BSA-cAMP assay, cells expressing mouse GIP receptor; assay type: cell-based; conditions: Batch 1; BSA-cAMP assay; read-out: mGIPr cAMP activity EC50
T5 construct: expressed in transfected cells; host or cells: HEK293s or CHO cells
T5 sequence (Q0P543 19-460): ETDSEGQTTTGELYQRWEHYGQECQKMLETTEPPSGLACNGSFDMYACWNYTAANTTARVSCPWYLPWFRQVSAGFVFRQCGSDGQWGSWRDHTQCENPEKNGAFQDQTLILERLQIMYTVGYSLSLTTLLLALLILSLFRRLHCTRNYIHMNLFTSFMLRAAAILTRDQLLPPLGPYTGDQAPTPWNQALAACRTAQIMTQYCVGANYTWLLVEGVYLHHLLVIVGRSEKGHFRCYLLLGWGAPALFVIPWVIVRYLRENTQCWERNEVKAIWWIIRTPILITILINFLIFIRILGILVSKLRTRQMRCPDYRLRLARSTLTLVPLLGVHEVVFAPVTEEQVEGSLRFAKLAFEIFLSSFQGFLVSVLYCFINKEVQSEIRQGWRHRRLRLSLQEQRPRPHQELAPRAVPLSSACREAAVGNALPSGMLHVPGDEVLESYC
Protocol: as §1, §2, §3, §4, §5, §6, §7, §8

[6] = biological target: T6, rat GLP-1 receptor (rGLP-1r) (Rattus norvegicus, UniProt P32301); test: BSA-cAMP assay, cells expressing rat GLP-1 receptor; assay type: cell-based; conditions: Batch 1; BSA-cAMP assay; read-out: rGLP1r cAMP activity EC50
T6 construct: expressed in transfected cells; host or cells: HEK293s or CHO cells
T6 sequence (P32301 22-463): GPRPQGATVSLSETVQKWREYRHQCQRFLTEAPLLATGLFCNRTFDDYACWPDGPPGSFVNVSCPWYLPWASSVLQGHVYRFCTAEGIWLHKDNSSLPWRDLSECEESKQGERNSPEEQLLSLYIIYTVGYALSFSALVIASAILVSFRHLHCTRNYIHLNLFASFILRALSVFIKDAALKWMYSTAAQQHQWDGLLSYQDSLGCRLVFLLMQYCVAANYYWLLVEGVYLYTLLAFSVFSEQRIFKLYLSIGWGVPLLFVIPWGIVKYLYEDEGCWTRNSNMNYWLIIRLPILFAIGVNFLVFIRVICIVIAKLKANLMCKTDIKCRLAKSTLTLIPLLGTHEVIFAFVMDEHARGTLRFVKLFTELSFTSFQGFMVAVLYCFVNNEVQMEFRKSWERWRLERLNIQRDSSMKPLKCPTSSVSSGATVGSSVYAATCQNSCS
Protocol: as §1, §2, §3, §4, §5, §6, §7, §8

rat GIP receptor (rGIPr) = biological target: T7, rat GIP receptor (rGIPr) (Rattus norvegicus, UniProt P43219); test: BSA-cAMP assay, cells expressing rat GIP receptor; assay type: cell-based; conditions: Batch 1; BSA-cAMP assay; read-out: rGIPr cAMP activity EC50
T7 construct: expressed in transfected cells; host or cells: HEK293s or CHO cells
T7 sequence (P43219 19-455): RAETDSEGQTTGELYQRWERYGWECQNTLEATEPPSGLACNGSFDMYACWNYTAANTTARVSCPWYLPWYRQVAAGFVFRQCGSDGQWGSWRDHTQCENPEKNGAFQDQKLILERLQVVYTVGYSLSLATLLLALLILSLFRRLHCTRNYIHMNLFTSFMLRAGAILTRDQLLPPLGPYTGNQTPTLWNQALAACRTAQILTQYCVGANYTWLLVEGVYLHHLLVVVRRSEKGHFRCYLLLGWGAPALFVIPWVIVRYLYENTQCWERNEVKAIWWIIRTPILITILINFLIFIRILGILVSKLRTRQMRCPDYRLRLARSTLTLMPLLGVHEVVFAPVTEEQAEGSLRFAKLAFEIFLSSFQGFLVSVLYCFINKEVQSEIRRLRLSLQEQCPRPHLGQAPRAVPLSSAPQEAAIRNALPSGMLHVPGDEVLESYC
Protocol: as §1, §2, §3, §4, §5, §6, §7, §8

cyno GCGr (cGCGr) = test: cAMP assay, cells expressing cyno GCGr, 4.2% cyno serum albumin; assay type: cell-based, cynomolgus monkey; conditions: culture medium containing 4.2% cyno serum albumin
Text: In certain aspects, the assay can also be carried out in medium supplemented with serum albumin that corresponds to the receptor being tested, e.g., human serum albumin for testing cAMP activity at hGIPr or hGLP-1r, rat serum albumin for testing cAMP activity at rGIPr or rGLP-1r, and so on. Low protein binding 384-well plates (Greiner #781280) were used to perform eleven 1 in 5 serial dilutions of test samples that were made in assay medium. All sample dilutions were made in duplicate.
A frozen cryo-vial of cells expressing the receptor of interest was thawed rapidly in a water-bath, transferred to pre-warmed assay media and spun at 240×g for 5 minutes. Cells were re-suspended in assay buffer at an optimized concentration (e.g., hGLP-1r and hGIPr cells at 0.5×10^5 cells/ml). […]
cAMP levels were measured using a commercially available cAMP dynamic 2 HTRF kit (Cisbio, Cat #62AM4PEJ), following the two step protocol as per manufacturer's recommendations. […] Plates were incubated at room temperature for one hour and then read on an Envision (Perkin Elmer) using excitation wavelength of 320 nm and emission wavelengths of 620 nm & 665 nm. Data was transformed to % Delta F as described in manufacturer's guidelines and then transformed to percent activation of maximal native agonist response and analysed by 4-parameter logistic fit to determine EC50 values.

T3 sequence (P47871 26-477): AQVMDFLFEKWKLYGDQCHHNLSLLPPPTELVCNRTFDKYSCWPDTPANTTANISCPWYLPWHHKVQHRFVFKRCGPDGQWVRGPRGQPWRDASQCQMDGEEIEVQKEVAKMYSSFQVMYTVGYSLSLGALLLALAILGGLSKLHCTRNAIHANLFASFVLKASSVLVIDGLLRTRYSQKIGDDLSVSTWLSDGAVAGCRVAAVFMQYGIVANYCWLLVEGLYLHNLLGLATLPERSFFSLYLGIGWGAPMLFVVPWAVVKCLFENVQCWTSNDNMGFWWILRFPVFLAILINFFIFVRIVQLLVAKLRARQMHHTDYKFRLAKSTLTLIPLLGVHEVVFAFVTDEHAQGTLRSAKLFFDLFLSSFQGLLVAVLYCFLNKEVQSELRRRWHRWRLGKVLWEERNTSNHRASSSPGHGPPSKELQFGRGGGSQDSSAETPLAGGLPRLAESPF
T1 sequence (P43220 24-463): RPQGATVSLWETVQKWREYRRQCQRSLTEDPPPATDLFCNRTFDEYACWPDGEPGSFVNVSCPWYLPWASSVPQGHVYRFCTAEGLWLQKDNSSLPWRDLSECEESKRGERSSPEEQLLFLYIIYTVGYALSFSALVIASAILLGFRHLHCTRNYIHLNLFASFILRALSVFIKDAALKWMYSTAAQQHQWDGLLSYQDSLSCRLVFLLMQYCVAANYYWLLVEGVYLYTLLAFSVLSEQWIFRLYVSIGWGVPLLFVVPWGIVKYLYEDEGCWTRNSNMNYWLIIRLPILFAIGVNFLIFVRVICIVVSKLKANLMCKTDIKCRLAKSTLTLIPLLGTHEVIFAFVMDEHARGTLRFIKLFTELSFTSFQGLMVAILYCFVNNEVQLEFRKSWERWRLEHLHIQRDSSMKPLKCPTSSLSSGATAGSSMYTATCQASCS

EC50 [1] | EC50 [2] | EC50 [3] | EC50 [4] | EC50 [5] | EC50 [6] | EC50 (rat GIP receptor (rGIPr)) | EC50 (cyno GCGr (cGCGr)) | Substance
> 9130 nM | 0.0034 nM | 540 nM | > 16600 nM | 0.03 nM | > 16600 nM | 0.0085 nM | – | IP386 (YSEGTFISDYSIAMDKIHQQDFVNWLLAQKGGGGGSGGGGSGGGGSGGGGSACPPC)
0.12 nM | 0.012 nM | 380 nM | 3.8 nM | 3.3 nM | 0.016 nM | 0.063 nM | – | IP395 (YSEGTFTSDYSKLLERQAIDEFIAHLLKGGGGGGGSGGGGSGGGGSGGGGSACPPC)
– | – | – | – | – | – | – | 0.0036 nM | hGCG: native human glucagon, comparator in cAMP assays
